Experimental data from publication PMC4676693.

How the values were obtained:
Experiment in all cases: SPR; Biacore T200; anti-His antibody amine-coupled on a CM5 chip captures the His-tagged receptor (100 nM FcγRIa, 300 nM FcγRIIa_R131 and FcγRIIb, 200 nM FcγRIIIa_V158, 200 nM FcRn); IgG1 glycovariant, Fc-fragment or pre-incubated IgG1 complex injected as analyte (FcγRI 100 nM, FcγRIIa/b 300 nM, FcγRIIIa 200 nM); non-kinetic comparison, WT set as 100%; HBS-N (10 mM HEPES, pH 7.4, 150 mM NaCl)
[1] = molecular target: His-tagged FcγRIIIa_V158 (human)
His-tagged FcγRI (human) = His-tagged FcγRI (human) (UniProt P12314)
[2] = molecular target: His-tagged FcγRIIa_R131 (human)
[3] = molecular target: His-tagged FcγRIIb (human) (UniProt P31994)
Sequence of UniProt P31994 (P31994 43-310): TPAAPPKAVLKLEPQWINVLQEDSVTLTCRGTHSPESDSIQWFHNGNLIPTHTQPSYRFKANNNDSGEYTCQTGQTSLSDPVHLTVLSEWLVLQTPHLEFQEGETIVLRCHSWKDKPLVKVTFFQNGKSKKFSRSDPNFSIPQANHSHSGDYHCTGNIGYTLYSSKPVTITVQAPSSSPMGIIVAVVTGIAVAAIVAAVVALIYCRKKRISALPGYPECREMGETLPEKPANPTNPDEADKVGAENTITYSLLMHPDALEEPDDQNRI

Sequence of UniProt P12314 (P12314 16-374): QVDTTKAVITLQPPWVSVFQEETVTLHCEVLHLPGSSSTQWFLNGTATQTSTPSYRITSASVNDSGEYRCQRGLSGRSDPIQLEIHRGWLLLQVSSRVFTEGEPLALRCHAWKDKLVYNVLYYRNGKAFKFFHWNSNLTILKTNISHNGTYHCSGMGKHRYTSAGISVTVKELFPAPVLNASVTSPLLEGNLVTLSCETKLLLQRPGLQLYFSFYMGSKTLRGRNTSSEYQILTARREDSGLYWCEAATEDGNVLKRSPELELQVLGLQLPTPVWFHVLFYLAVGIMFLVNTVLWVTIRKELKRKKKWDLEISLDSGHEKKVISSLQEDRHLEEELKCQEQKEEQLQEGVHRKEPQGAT

Substance | percent binding (WT = 100%) [1] | percent decrease in binding against WT (His-tagged FcγRI (human)) | percent binding (WT = 100%) [2] | percent binding (WT = 100%) [3]
G1+1SA IgG1 glycovariant (antibody) | 75% | – | – | –
M3 IgG1 glycovariant (antibody) | 70% | – | 45% | 65%

Continued, values first:

percent binding (WT = 100%) [1] | percent decrease in binding against WT (His-tagged FcγRI (human)) | percent binding (WT = 100%) [2] | percent binding (WT = 100%) [3] | Substance
75% | – | – | – | G1 IgG1 glycovariant (antibody)
– | 40% | – | – | deglycosylated IgG1 glycovariant (antibody)
75% | – | – | – | G0 IgG1 glycovariant (antibody)
